According to paper PMC3313673:

Biological target: extracellular domain of quail MuSK (amino acid residues 1 to 463), His-tagged (quail)
Assay: ELISA

signal of the plate assay (read at 415 nm): 0.45
B1: biotinylated recombinant biglycan (non-glycanated form) (ligand)
chain: DEEASGADTSGVLDPDSVTPTYSAMCPFGCHCHLRVVQCSDLGLKSVPKEISPDTTLLDLQNNDISELRKDDFKGLQHLYALVLVNNKISKIHEKAFSPLRKLQKLYISKNHLVEIPPNLPSSLVELRIHDNRIRKVPKGVFSGLRNMNCIEMGGNPLENSGFEPGAFDGLKLNYLRISEAKLTGIPKDLPETLNELHLDHNKIQAIELEDLLRYSKLYRLGLGHNQIRMIENGSLSFLPTLRELHLDNNKLARVPSGLPDLKLLQVVYLHSNNITKVGVNDFCPMGFGVKRAYYNGISLFNNPVPYWEVQPATFRCVTDRLAIQFGNYKK
modifications: biotin (site not stated)
